Columns and labels:
Assay in all cases: ELISA; cytokine coated, ECM protein 0.02 to 320 nM, KD by non-linear fit
Fibronectin = target: Fibronectin
Osteopontin = target: Osteopontin
Fibrinogen = target: Fibrinogen
Vitronectin = target: Vitronectin
Tenascin C = target: Tenascin C

VEGF-A165, sequence (P15692 other isoform, or with tags, fused parts or gaps limits assumed): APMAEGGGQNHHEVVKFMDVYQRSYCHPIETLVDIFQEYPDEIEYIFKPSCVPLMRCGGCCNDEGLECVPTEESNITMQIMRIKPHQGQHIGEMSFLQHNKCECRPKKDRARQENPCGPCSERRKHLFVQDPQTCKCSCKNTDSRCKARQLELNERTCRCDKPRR
human VEGF-A121-PlGF2123-144, sequence (P15692 other isoform, or with tags, fused parts or gaps): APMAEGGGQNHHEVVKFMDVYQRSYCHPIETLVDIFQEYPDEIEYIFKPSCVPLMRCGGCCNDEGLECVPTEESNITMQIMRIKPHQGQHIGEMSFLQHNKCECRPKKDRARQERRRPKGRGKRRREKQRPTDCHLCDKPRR
human PDGF-BB, sequence (P01127 82-190 limits assumed): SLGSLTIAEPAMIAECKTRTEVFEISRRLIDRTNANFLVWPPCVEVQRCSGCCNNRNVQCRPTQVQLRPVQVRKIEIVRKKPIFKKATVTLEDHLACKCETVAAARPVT
Osteopontin, sequence (P10451 17-314): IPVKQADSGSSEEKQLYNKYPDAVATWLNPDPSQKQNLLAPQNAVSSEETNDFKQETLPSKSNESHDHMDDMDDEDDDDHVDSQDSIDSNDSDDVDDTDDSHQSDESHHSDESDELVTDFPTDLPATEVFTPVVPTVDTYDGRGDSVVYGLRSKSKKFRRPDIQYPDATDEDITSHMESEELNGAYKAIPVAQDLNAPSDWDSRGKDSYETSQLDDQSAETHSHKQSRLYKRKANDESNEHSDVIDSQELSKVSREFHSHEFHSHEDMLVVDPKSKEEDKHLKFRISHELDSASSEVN
Vitronectin, sequence (P04004 20-478): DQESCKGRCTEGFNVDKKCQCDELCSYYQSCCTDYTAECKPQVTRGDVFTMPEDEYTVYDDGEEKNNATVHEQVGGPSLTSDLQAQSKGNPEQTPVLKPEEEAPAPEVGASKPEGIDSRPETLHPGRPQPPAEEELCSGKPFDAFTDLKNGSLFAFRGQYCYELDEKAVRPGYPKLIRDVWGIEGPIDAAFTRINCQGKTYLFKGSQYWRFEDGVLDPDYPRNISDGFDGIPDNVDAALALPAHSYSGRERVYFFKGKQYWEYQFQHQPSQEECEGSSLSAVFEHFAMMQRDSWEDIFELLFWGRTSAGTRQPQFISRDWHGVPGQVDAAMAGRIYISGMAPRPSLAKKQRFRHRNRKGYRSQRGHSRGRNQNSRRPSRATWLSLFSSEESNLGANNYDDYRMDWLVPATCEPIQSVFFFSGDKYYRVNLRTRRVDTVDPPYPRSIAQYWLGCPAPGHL
Fibronectin, sequence (P02751 32-2477): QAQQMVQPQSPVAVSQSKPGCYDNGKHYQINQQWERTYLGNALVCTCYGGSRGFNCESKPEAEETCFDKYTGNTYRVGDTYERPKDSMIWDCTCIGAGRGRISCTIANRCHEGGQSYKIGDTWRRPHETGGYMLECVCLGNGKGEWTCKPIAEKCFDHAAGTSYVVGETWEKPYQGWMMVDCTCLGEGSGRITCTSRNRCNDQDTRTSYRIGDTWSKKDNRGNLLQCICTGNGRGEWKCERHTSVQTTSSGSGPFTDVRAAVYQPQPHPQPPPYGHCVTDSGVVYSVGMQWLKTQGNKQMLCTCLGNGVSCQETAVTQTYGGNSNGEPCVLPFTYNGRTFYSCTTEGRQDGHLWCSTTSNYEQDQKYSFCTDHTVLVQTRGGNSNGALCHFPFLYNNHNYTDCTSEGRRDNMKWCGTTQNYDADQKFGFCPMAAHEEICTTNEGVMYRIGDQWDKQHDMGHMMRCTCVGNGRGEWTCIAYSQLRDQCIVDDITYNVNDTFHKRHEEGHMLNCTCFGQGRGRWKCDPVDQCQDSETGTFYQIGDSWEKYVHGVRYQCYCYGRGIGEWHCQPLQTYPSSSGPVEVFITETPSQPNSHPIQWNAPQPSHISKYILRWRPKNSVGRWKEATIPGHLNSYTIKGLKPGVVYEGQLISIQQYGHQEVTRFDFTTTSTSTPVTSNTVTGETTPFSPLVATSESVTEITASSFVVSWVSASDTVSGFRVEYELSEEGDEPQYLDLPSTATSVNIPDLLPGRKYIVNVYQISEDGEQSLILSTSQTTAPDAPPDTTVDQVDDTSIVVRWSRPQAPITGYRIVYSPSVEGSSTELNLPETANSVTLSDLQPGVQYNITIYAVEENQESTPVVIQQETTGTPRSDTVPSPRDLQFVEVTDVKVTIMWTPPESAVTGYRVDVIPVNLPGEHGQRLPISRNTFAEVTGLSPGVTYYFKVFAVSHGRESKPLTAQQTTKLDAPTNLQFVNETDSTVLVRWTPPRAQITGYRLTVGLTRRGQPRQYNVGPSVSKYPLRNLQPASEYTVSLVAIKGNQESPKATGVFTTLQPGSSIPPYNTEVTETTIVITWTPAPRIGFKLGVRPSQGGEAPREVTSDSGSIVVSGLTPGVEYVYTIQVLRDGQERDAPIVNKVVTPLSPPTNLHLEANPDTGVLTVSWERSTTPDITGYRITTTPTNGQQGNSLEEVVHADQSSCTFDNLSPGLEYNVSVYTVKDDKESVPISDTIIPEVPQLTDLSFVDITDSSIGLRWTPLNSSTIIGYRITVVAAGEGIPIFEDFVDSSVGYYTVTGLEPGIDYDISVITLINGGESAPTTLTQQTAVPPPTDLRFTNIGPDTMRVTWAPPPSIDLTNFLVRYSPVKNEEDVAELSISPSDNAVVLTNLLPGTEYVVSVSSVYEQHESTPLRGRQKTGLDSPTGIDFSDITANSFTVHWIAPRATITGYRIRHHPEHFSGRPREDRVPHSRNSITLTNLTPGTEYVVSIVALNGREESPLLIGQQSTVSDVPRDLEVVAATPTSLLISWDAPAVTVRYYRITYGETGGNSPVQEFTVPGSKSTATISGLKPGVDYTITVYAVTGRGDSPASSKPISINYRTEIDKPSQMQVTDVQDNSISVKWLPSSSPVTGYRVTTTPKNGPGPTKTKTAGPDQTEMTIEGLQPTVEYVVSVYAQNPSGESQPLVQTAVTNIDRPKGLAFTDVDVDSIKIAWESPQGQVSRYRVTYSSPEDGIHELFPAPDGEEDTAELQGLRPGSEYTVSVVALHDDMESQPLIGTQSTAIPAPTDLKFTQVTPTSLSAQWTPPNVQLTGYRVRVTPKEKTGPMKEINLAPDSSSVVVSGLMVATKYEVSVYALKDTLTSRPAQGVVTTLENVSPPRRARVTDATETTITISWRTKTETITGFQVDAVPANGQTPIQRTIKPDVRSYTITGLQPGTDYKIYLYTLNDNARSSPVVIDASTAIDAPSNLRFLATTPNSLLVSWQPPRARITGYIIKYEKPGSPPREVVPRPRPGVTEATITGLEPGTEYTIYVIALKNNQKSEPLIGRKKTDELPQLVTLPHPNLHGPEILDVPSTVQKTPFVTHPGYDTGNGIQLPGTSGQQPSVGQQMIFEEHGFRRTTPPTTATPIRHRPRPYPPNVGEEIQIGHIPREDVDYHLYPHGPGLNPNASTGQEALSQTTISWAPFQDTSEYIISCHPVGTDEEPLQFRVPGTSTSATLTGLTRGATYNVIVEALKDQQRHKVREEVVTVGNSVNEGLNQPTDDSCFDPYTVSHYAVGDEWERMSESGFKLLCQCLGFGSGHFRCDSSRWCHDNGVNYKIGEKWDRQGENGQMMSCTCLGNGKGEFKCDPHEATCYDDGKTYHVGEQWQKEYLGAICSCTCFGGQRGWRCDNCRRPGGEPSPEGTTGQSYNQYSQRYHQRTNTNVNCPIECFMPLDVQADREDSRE

Row | Kd (Fibronectin) [µM] | Kd (Osteopontin) [µM] | Kd (Fibrinogen) [µM] | Kd (Vitronectin) [µM] | Kd (Tenascin C) [µM] | Substance
1 | 0.0072 | 0.0131 | 0.0045 | 0.002 | 0.0101 | PlGF2 (ligand)
2 | 0.0972 | 0.071 | 0.301 | 0.0709 | 0.115 | VEGF-A165 (from UniProt P15692 27-191) (ligand)
3 | 0.0116 | 0.0203 | 0.25 | 0.0105 | 0.019 | human PDGF-BB (from UniProt P01127 82-190) (ligand)
4 | 0.0112 | 0.0264 | 0.0058 | 0.0028 | 0.018 | human VEGF-A121-PlGF2123-144 (from UniProt P15692 207-395) (ligand)
